# Reference: the supplement of paper PMC9112550, “Optimization of the antimicrobial peptide Bac7 by deep mutational scanning” (BMC Biology, 2022)
# System: Escherichia coli TOP10
# Assay: shrunken log2 fold change of peptide-encoding DNA abundance (4.5 h post-induction vs induction); higher = less antimicrobial activity (less host growth inhibition)
# Details: time post-induction: 4.5 h; library: site-saturation at positions 5, 18, 19, 20
# 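Further: peptides expressed intracellularly from a pBAD plasmid library in pooled LB shake-flask culture, induced with 0.3% L-arabinose, DNA abundance read by NGS, three biological replicates, DESeq2 with apeglm shrinkage.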
row,Sequence,shrunken log2 fold change
1,RRIRQRPPRLPRPRPRPFEIPRP,0.0112
2,RRIRIRPPRLPRPRPRPMSHPRP,-0.0862
3,RRIRLRPPRLPRPRPRPAQEPRP,-0.023
4,RRIRMRPPRLPRPRPRPSPYPRP,-0.0611
5,RRIRIRPPRLPRPRPRPPDLPRP,-0.00973
6,RRIRIRPPRLPRPRPRPWAIPRP,-0.0196
7,RRIRERPPRLPRPRPRPANMPRP,-0.19
8,RRIRYRPPRLPRPRPRPTMKPRP,-0.285
9,RRIRPRPPRLPRPRPRPRSEPRP,0.564
10,RRIRPRPPRLPRPRPRPKCSPRP,-0.197
11,RRIRARPPRLPRPRPRPGWLPRP,0.285
12,RRIRLRPPRLPRPRPRPGQDPRP,0.0899
13,RRIRARPPRLPRPRPRPCNYPRP,-0.178
14,RRIRKRPPRLPRPRPRPMEDPRP,-0.00186
15,RRIRHRPPRLPRPRPRPNKLPRP,-1.05
16,RRIRIRPPRLPRPRPRPDDHPRP,0.07
17,RRIRYRPPRLPRPRPRPERAPRP,0.173
18,RRIRSRPPRLPRPRPRPDNYPRP,-0.303
19,RRIRVRPPRLPRPRPRPCTTPRP,0.167
20,RRIRQRPPRLPRPRPRPSPWPRP,0.433
21,RRIRPRPPRLPRPRPRPQATPRP,-0.2
22,RRIRCRPPRLPRPRPRPDNGPRP,-0.0856
23,RRIRFRPPRLPRPRPRPFSLPRP,-0.375
24,RRIRTRPPRLPRPRPRPYIPPRP,-0.462
25,RRIRRRPPRLPRPRPRPHFLPRP,-0.196

row,Sequence,shrunken log2 fold change
1,RRIRKRPPRLPRPRPRPNLQPRP,0.279
2,RRIRRRPPRLPRPRPRPWYRPRP,-0.151
3,RRIRLRPPRLPRPRPRPSTGPRP,-0.221
4,RRIRPRPPRLPRPRPRPNTRPRP,-0.112
5,RRIRPRPPRLPRPRPRPTMGPRP,0.0476
6,RRIRDRPPRLPRPRPRPDKWPRP,-0.0651
7,RRIRRRPPRLPRPRPRPFFGPRP,0.159
8,RRIRGRPPRLPRPRPRPHQEPRP,0.305
9,RRIRSRPPRLPRPRPRPYMDPRP,-0.326
10,RRIRDRPPRLPRPRPRPMLSPRP,4.44e-05
11,RRIRNRPPRLPRPRPRPEFWPRP,0.0698
12,RRIRLRPPRLPRPRPRPVRHPRP,0.19
13,RRIRHRPPRLPRPRPRPEFQPRP,-0.0862
14,RRIRLRPPRLPRPRPRPFPEPRP,-0.0878
15,RRIRLRPPRLPRPRPRPNLLPRP,0.153
16,RRIRSRPPRLPRPRPRPSSMPRP,-0.422
17,RRIRDRPPRLPRPRPRPHVMPRP,-0.0796
18,RRIRGRPPRLPRPRPRPTHWPRP,0.629
19,RRIRHRPPRLPRPRPRPKDTPRP,-0.15
20,RRIRERPPRLPRPRPRPLECPRP,-0.498
21,RRIRYRPPRLPRPRPRPRASPRP,-0.412
22,RRIRMRPPRLPRPRPRPSLTPRP,0.806
23,RRIRVRPPRLPRPRPRPYMFPRP,-0.552
24,RRIRHRPPRLPRPRPRPPGTPRP,0.0679
25,RRIRYRPPRLPRPRPRPTVEPRP,0.0629

row,Sequence,shrunken log2 fold change
1,RRIRMRPPRLPRPRPRPNYAPRP,-0.193
2,RRIRRRPPRLPRPRPRPVPVPRP,0.128
3,RRIRVRPPRLPRPRPRPKTNPRP,-0.117
4,RRIRSRPPRLPRPRPRPFFVPRP,-0.184
5,RRIRDRPPRLPRPRPRPARYPRP,0.0754
6,RRIRMRPPRLPRPRPRPTRFPRP,0.261
7,RRIRRRPPRLPRPRPRPCKDPRP,-0.0845
8,RRIRDRPPRLPRPRPRPLVFPRP,-0.0186
9,RRIRFRPPRLPRPRPRPEYAPRP,-0.14
10,RRIRDRPPRLPRPRPRPVRIPRP,0.18
11,RRIRGRPPRLPRPRPRPTLGPRP,0.936
12,RRIRCRPPRLPRPRPRPKRLPRP,0.0169
13,RRIRVRPPRLPRPRPRPLCRPRP,-0.149
14,RRIRGRPPRLPRPRPRPCNVPRP,-0.037
15,RRIRTRPPRLPRPRPRPIPYPRP,-0.0288
16,RRIRMRPPRLPRPRPRPYMLPRP,-0.0122
17,RRIRRRPPRLPRPRPRPDLAPRP,0.197
18,RRIRWRPPRLPRPRPRPTSAPRP,0.389
19,RRIRLRPPRLPRPRPRPEWYPRP,0.0934
20,RRIRVRPPRLPRPRPRPIKLPRP,-0.486
21,RRIRGRPPRLPRPRPRPRHLPRP,0.221
22,RRIRHRPPRLPRPRPRPIQTPRP,-0.338
23,RRIRQRPPRLPRPRPRPIFKPRP,-0.208
24,RRIRRRPPRLPRPRPRPDTYPRP,-0.193
25,RRIRPRPPRLPRPRPRPLNRPRP,-0.0518

row,Sequence,shrunken log2 fold change
1,RRIRWRPPRLPRPRPRPPIEPRP,0.702
2,RRIRLRPPRLPRPRPRPEQEPRP,-0.104
3,RRIRHRPPRLPRPRPRPLLSPRP,-0.0464
4,RRIRRRPPRLPRPRPRPEYKPRP,-0.0169
5,RRIRCRPPRLPRPRPRPQVMPRP,-0.464
6,RRIRPRPPRLPRPRPRPWILPRP,-0.451
7,RRIRRRPPRLPRPRPRPVFSPRP,-0.0171
8,RRIRLRPPRLPRPRPRPKSMPRP,-0.0449
9,RRIRPRPPRLPRPRPRPKNYPRP,-0.428
10,RRIRNRPPRLPRPRPRPFDQPRP,-0.0155
11,RRIRLRPPRLPRPRPRPNRYPRP,0.0611
12,RRIRWRPPRLPRPRPRPCMWPRP,-0.0796
13,RRIRMRPPRLPRPRPRPPDKPRP,1.03
14,RRIRLRPPRLPRPRPRPLCYPRP,-0.15
15,RRIRTRPPRLPRPRPRPKGLPRP,-0.117
16,RRIRCRPPRLPRPRPRPGEMPRP,0.438
17,RRIRKRPPRLPRPRPRPFRRPRP,0.0327
18,RRIRSRPPRLPRPRPRPWGCPRP,0.032
19,RRIRGRPPRLPRPRPRPVCGPRP,0.866
20,RRIRPRPPRLPRPRPRPCDIPRP,0.024
21,RRIRMRPPRLPRPRPRPKLIPRP,-0.0987
22,RRIRMRPPRLPRPRPRPCRLPRP,0.0956
23,RRIRSRPPRLPRPRPRPRMTPRP,0.251
24,RRIRSRPPRLPRPRPRPFNDPRP,-0.223
25,RRIRWRPPRLPRPRPRPTLRPRP,0.0881

row,Sequence,shrunken log2 fold change
1,RRIRWRPPRLPRPRPRPDHYPRP,-0.023
2,RRIRCRPPRLPRPRPRPIQFPRP,-0.131
3,RRIRRRPPRLPRPRPRPRNGPRP,0.144
4,RRIRERPPRLPRPRPRPPITPRP,-0.351
5,RRIRCRPPRLPRPRPRPGAFPRP,0.138
6,RRIRVRPPRLPRPRPRPGSPPRP,0.187
7,RRIRWRPPRLPRPRPRPTICPRP,-0.106
8,RRIRPRPPRLPRPRPRPLWKPRP,0.0546
9,RRIRSRPPRLPRPRPRPEHRPRP,-0.00155
10,RRIRHRPPRLPRPRPRPWLVPRP,-0.0872
11,RRIRSRPPRLPRPRPRPWWFPRP,0.0202
12,RRIRARPPRLPRPRPRPKDFPRP,-0.0146
13,RRIRERPPRLPRPRPRPGYAPRP,-0.102
14,RRIRGRPPRLPRPRPRPDAFPRP,1.87
15,RRIRWRPPRLPRPRPRPNCDPRP,0.14
16,RRIRYRPPRLPRPRPRPSNEPRP,-0.474
17,RRIRRRPPRLPRPRPRPEIMPRP,0.209
18,RRIRPRPPRLPRPRPRPWLQPRP,-0.064
19,RRIRYRPPRLPRPRPRPSACPRP,-0.301
20,RRIRIRPPRLPRPRPRPCYIPRP,-0.27
21,RRIRYRPPRLPRPRPRPEKKPRP,-0.0472
22,RRIRSRPPRLPRPRPRPKKAPRP,0.0943
23,RRIRDRPPRLPRPRPRPAKMPRP,-0.156
24,RRIRIRPPRLPRPRPRPPYPPRP,-0.188
25,RRIRQRPPRLPRPRPRPQVYPRP,-0.0731

row,Sequence,shrunken log2 fold change
1,RRIRDRPPRLPRPRPRPTAHPRP,0.547
2,RRIRDRPPRLPRPRPRPHIHPRP,-0.342
3,RRIRNRPPRLPRPRPRPDCLPRP,0.0127
4,RRIRRRPPRLPRPRPRPKHSPRP,0.0683
5,RRIRPRPPRLPRPRPRPVPQPRP,0.446
6,RRIRGRPPRLPRPRPRPDMYPRP,0.0675
7,RRIRSRPPRLPRPRPRPYKTPRP,-0.0144
8,RRIRHRPPRLPRPRPRPPKFPRP,-0.223
9,RRIRQRPPRLPRPRPRPRYRPRP,-0.419
10,RRIRFRPPRLPRPRPRPPRVPRP,0.605
11,RRIRARPPRLPRPRPRPNTAPRP,0.181
12,RRIRRRPPRLPRPRPRPLDKPRP,-0.152
13,RRIRMRPPRLPRPRPRPYDCPRP,-0.113
14,RRIRWRPPRLPRPRPRPGGAPRP,0.691
15,RRIRARPPRLPRPRPRPCDHPRP,0.0696
16,RRIRPRPPRLPRPRPRPHNAPRP,-0.284
17,RRIRSRPPRLPRPRPRPDICPRP,-0.0721
18,RRIRMRPPRLPRPRPRPERQPRP,2.84
19,RRIRARPPRLPRPRPRPIYNPRP,-0.668
20,RRIRKRPPRLPRPRPRPRNPPRP,0.358
21,RRIRWRPPRLPRPRPRPWRAPRP,0.223
22,RRIRYRPPRLPRPRPRPLTSPRP,-0.853
23,RRIRNRPPRLPRPRPRPSPKPRP,0.191
24,RRIRSRPPRLPRPRPRPVTLPRP,-0.167
25,RRIRSRPPRLPRPRPRPYWLPRP,-0.248
